Reference: article PMC5823669, “Multi-chaperone function modulation and association with cytoskeletal proteins are key features of the function of AIP in the pituitary gland” (Oncotarget, 2018)

T1: GST-tagged human AIP p.R304* (human, UniProt O00170 1-303)
T1 construct: AIP, human, UniProt O00170; natural nonsense variant c.910C>T, p.R304*: stop codon in place of R304, truncated protein ending at residue 303; The C-terminal limit 303 follows from the printed p.R304*; also called GST-AIP R304*; not shown: GST, N-terminal, kept
T1 sequence (looked up): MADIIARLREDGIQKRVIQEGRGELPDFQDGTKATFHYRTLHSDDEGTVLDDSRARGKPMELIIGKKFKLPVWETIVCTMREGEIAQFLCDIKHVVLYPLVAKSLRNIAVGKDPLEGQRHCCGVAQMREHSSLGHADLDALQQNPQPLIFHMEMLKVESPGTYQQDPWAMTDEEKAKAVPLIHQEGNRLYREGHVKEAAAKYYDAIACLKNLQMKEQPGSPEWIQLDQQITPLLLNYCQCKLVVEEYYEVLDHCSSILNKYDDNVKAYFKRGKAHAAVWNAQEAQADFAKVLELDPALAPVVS

T2: GST-tagged human AIP p.A299V (human, UniProt O00170 1-330, p.A299V)
T2 construct: AIP, human, UniProt O00170; also called GST-AIP A299V; not shown: GST, N-terminal, kept
T2 sequence (looked up): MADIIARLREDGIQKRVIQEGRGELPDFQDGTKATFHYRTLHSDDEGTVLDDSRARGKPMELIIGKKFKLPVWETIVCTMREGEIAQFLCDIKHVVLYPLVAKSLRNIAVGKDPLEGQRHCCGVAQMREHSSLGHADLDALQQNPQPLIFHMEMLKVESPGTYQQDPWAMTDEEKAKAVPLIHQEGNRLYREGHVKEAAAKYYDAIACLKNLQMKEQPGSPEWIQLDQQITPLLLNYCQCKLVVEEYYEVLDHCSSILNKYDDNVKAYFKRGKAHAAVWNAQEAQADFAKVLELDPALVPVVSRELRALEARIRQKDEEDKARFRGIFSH

B1: TBB5_RAT Tubulin beta-5 chain (Tubb5) (natural protein, R. norvegicus (endogenous in GH3), UniProt P69897 1-444, looked up)
chain: MREIVHIQAGQCGNQIGAKFWEVISDEHGIDPTGTYHGDSDLQLDRISVYYNEATGGKYVPRAILVDLEPGTMDSVRSGPFGQIFRPDNFVFGQSGAGNNWAKGHYTEGAELVDSVLDVVRKEAESCDCLQGFQLTHSLGGGTGSGMGTLLISKIREEYPDRIMNTFSVVPSPKVSDTVVEPYNATLSVHQLVENTDETYCIDNEALYDICFRTLKLTTPTYGDLNHLVSATMSGVTTCLRFPGQLNADLRKLAVNMVPFPRLHFFMPGFAPLTSRGSQQYRALTVPELTQQVFDAKNMMAACDPRHGRYLTVAAVFRGRMSMKEVDEQMLNVQNKNSSYFVEWIPNNVKTAVCDIPPRGLKMAVTFIGNSTAIQELFKRISEQFTAMFRRKAFLHWYTGEGMDEMEFTEAESNMNDLVSEYQQYQDATAEEEEDFGEEAEEEA
notes: Tubulin beta-5 chain, rat, UniProt P69897; also called tubulin beta chain; source: endogenous, GH3 cell lysate
B2: TBB2A_RAT Tubulin beta-2A chain (Tubb2a) (natural protein, R. norvegicus (endogenous in GH3), UniProt P85108 1-445, looked up)
chain: MREIVHIQAGQCGNQIGAKFWEVISDEHGIDPTGSYHGDSDLQLERINVYYNEAAGNKYVPRAILVDLEPGTMDSVRSGPFGQIFRPDNFVFGQSGAGNNWAKGHYTEGAELVDSVLDVVRKESESCDCLQGFQLTHSLGGGTGSGMGTLLISKIREEYPDRIMNTFSVMPSPKVSDTVVEPYNATLSVHQLVENTDETYSIDNEALYDICFRTLKLTTPTYGDLNHLVSATMSGVTTCLRFPGQLNADLRKLAVNMVPFPRLHFFMPGFAPLTSRGSQQYRALTVPELTQQMFDSKNMMAACDPRHGRYLTVAAIFRGRMSMKEVDEQMLNVQNKNSSYFVEWIPNNVKTAVCDIPPRGLKMSATFIGNSTAIQELFKRISEQFTAMFRRKAFLHWYTGEGMDEMEFTEAESNMNDLVSEYQQYQDATADEQGEFEEEEGEDEA
notes: Tubulin beta-2A chain, rat, UniProt P85108; source: endogenous, GH3 cell lysate
B3: NDKA_RAT Nucleoside diphosphate kinase A (Nme1) (natural protein, R. norvegicus (endogenous in GH3), UniProt Q05982 1-152, looked up)
chain: MANSERTFIAIKPDGVQRGLVGEIIKRFEQKGFRLVGLKFIQASEDLLKEHYIDLKDRPFFSGLVKYMHSGPVVAMVWEGLNVVKTGRVMLGETNPADSKPGTIRGDFCIQVGRNIIHGSDSVESAEKEISLWFQPEELVDYKSCAQNWIYE
notes: Nucleoside diphosphate kinase A, rat, UniProt Q05982; also called NME/NM23 nucleoside diphosphate kinase 1; source: endogenous, GH3 cell lysate

What was measured:
[1] = target: T1, GST-tagged human AIP p.R304*; test: affinity purification with mass spectrometry; GST pull-down: 10 ug of purified GST-AIP bait (WT or variant) against 2 mg total protein of GH3 cell lysate; eluates of four experiments pooled; TMTsixplex labelling, Orbitrap MS; peptide intensities minus the GST control, variants given as fold of the WT experiment (WT = 1); details: one partner purified
[2] = target: T2, GST-tagged human AIP p.A299V; test: as above; details: one partner purified

Row | Binder | normalized intensity value (fold of the WT AIP pull-down) [1] | normalized intensity value (fold of the WT AIP pull-down) [2]
1 | B1 | 0.2 fold of WT | 
2 | B2 | 0.3 fold of WT | 
3 | B3 |  | 0.2 fold of WT
